Measurements reported in patent US20250320281A1 (published 2025).
Changes are numbered by the printed parent chain.

B1: 1443_C16 (PG16) (TCN-116) (antibody, V domains shown)
VH: QEQLVESGGGVVQPGGSLRLSCLASGFTFHKYGMHWVRQAPGKGLEWVALISDDGMRKYHSDSMWGRVTISRDNSKNTLYLQFSSLKVEDTAMFFCAREAGGPIWHDDVKYYDFNDGYYNYHYMDVWGKGTTVTVSS
VL: QSALTQPASVSGSPGQTITISCNGTSSDVGGFDSVSWYQQSPGKAPKVMVFDVSHRPSGISNRFSGSKSGNTASLTISGLHIEDEGDYFCSSLTDRSHRIFGGGTKVTVLG
B2: 1496_C09 (PG9) (TCN-109) (antibody, V domains shown)
VH: QRLVESGGGVVQPGSSLRLSCAASGFDFSRQGMHWVRQAPGQGLEWVAFIKYDGSEKYHADSVWGRLSISRDNSKDTLYLQMNSLRVEDTATYFCVREAGGPDYRNGYNYYDFYDGYYNYHYMDVWGKGTTVTVSS
VL: QSALTQPASVSGSPGQSITISCNGTSNDVGGYESVSWYQQHPGKAPKVVIYDVSKRPSGVSNRFSGSKSGNTASLTISGLQAEDEGDYYCKSLTSTRRRVFGTGTKLTVLG
B3: 1460_G14 (PGG14) (antibody, human IgG1, kappa, V domains shown)
VH: QVLLVQSGTEVKKPGSSVKVSCQASGGAFSSYAFSWVRQAPGQGLEWMGMITPVFGETKYAPRFQGRLTLTAEESLSTTYMELRSLTSDDTAFYYCTRDRRVVPMATDNWLDPWGQGTLVTVSS
VL: DIQLTQSPSSLSASVGDRVTVTCRASQTIHTYLNWYQQIPGKAPKLLIYGASTLQSGVPSRFSGSGSGTDFTLTINSLQPEDFATYYCQQSYSTPRTFGQGTRLDIKR
B4: 1460_G14 (PGG14) (antibody, human IgG1, kappa, V domains shown)
VH: B3 VH
VL: B3 VL
B5: 1456_P20 (PG20) (antibody, human IgG1, kappa, V domains shown)
VH: QVRLVQSGPEVKKPGSSVTVSCQASGGTFSSYAFTWVRQAPGQGLEWLGMVTPIFGEAKYSQRFEGRVTITADESTSTTSIELRGLTSEDTAIYYCARDRRAVPIATDNWLDPWGQGTLVTVSS
VL: B3 VL with T20S, V21I, H30N, T31N, I39T, T53N, S56N, N76S, Y92F
B6: 1495_C14 (PGC14) (antibody, human IgG1, lambda, V domains shown)
VH: DGHLVQSGVEVKKTGATVKISCKVSGYSFIDYYLHWVQRAPGKGLEWVGLIDPENGEARYAEKFQGRVTIIADTSIDTGYMEMRSLKSEDTAVYFCAAGAVGADSGSWFDPWGQGTLVTVSS
VL: SYELTQPPSVSVSPGQTASITCSGSKLGDKYVSWYQLRPGQSPILVMYENDRRPSGIPERFSGSNSGDTATLTISGTQALDEADFYCQAWETTTTTFVFFGGGTQLTVLG

Assays:
Experiment in all cases: cell-based or functional assay
[1] = target: HIV-1 93UG077 Env (pseudovirus) (HIV-1 isolate 93UG077)
[2] = target: HIV-1 92BR020 Env (pseudovirus) (HIV-1 isolate 92BR020)
[3] = target: HIV-1 APV-13 Env (pseudovirus) (HIV-1 isolate APV-13)
[4] = target: HIV-1 APV-17 Env (pseudovirus) (HIV-1 isolate APV-17)
[5] = target: HIV-1 APV-6 Env (pseudovirus) (HIV-1 isolate APV-6)
[6] = target: HIV-1 93IN905 Env (pseudovirus) (HIV-1 isolate 93IN905)
[7] = target: HIV-1 IAVI-C18 Env (pseudovirus) (HIV-1 isolate IAVI-C18)
[8] = target: HIV-1 IAVI-C22 Env (pseudovirus) (HIV-1 isolate IAVI-C22)
[9] = target: HIV-1 IAVI-C3 Env (pseudovirus) (HIV-1 isolate IAVI-C3)
[10] = target: HIV-1 92UG024 Env (pseudovirus) (HIV-1 isolate 92UG024)
[11] = target: HIV-1 92UG005 Env (pseudovirus) (HIV-1 isolate 92UG005)
[12] = target: HIV-1 92TH021 Env (pseudovirus) (HIV-1 isolate 92TH021)
[13] = target: HIV-1 CMU02 Env (pseudovirus) (HIV-1 isolate CMU02)
[14] = target: HIV-1 94UG103 Env (pseudovirus) (HIV-1 isolate 94UG103)
[15] = target: HIV-1 92RW020 Env (pseudovirus) (HIV-1 isolate 92RW020)
[16] = target: HIV-1 93IN905 Env on pseudotyped virus (HIV-1 isolate 93IN905)
[17] = target: HIV-1 IAVI_C22 Env on pseudotyped virus (HIV-1 isolate IAVI_C22)
[18] = target: HIV-1 92TH021 Env on pseudotyped virus (HIV-1 isolate 92TH021)
[19] = target: HIV-1 NL43 Env on pseudotyped virus (HIV-1 NL43)
[20] = target: HIV-1 SF162 Env on pseudotyped virus (HIV-1 isolate SF162)
[21] = target: HIV-1 94UG103 Env on pseudotyped virus (HIV-1 isolate 94UG103)
[22] = target: HIV-1 92BR020 Env on pseudotyped virus (HIV-1 isolate 92BR020)

Binder | IC50 (µg/mL), pseudovirus neutralization [1] [µg/mL] | IC50 (µg/mL), pseudovirus neutralization [2] [µg/mL] | IC50 (µg/mL), pseudovirus neutralization [3] [µg/mL] | IC50 (µg/mL), pseudovirus neutralization [4] [µg/mL] | IC50 (µg/mL), pseudovirus neutralization [5] [µg/mL] | IC50 (µg/mL), pseudovirus neutralization [6] [µg/mL] | IC50 (µg/mL), pseudovirus neutralization [7] [µg/mL] | IC50 (µg/mL), pseudovirus neutralization [8] [µg/mL] | IC50 (µg/mL), pseudovirus neutralization [9] [µg/mL] | IC50 (µg/mL), pseudovirus neutralization [10] [µg/mL] | IC50 (µg/mL), pseudovirus neutralization [11] [µg/mL] | IC50 (µg/mL), pseudovirus neutralization [12] [µg/mL] | IC50 (µg/mL), pseudovirus neutralization [13] [µg/mL] | IC50 (µg/mL), pseudovirus neutralization [14] [µg/mL] | IC50 (µg/mL), pseudovirus neutralization [15] [µg/mL] | other results
B1 | > 50 | > 50 | > 50 | > 50 | 0.08 | 0.1 | 0.007 | 0.069 | 14.8 | > 50 | > 50 | 0.13 | > 50 | 0.008 | 0.004 | 
B2 | > 50 | > 50 | > 50 | 26.4 | 0.09 |  | 0.05 |  | 12.9 |  | > 50 |  | > 50 | 0.17 | 0.06 | 
B3 | > 50 | > 50 | > 50 | > 50 | > 50 | > 50 | > 50 | > 50 | > 50 | > 50 | > 50 | > 50 | > 50 | > 50 | > 50 | 
B4 |  |  |  |  |  |  |  |  |  |  |  |  |  |  |  | Neutralizing Antibody Assay: IC50; Virus/Ab Incubation 1 hour [16]: > 50 µg/mL; Neutralizing Antibody Assay: IC50; Virus/Ab Incubation 18 hour [16]: 3.17 µg/mL; Neutralizing Antibody Assay: IC50; Virus/Ab Incubation 1 hour [17]: > 50 µg/mL; Neutralizing Antibody Assay: IC50; Virus/Ab Incubation 18 hour [17]: > 50 µg/mL; Neutralizing Antibody Assay: IC50; Virus/Ab Incubation 1 hour [18]: > 50 µg/mL; Neutralizing Antibody Assay: IC50; Virus/Ab Incubation 18 hour [18]: > 50 µg/mL; Neutralizing Antibody Assay: IC50; Virus/Ab Incubation 1 hour [19]: 0.17 µg/mL; Neutralizing Antibody Assay: IC50; Virus/Ab Incubation 18 hour [19]: 0.05 µg/mL; Neutralizing Antibody Assay: IC50; Virus/Ab Incubation 1 hour [20]: 0.179 µg/mL; Neutralizing Antibody Assay: IC50; Virus/Ab Incubation 18 hour [20]: 0.0573 µg/mL; Neutralizing Antibody Assay: IC50; Virus/Ab Incubation 1 hour [21]: > 50 µg/mL; Neutralizing Antibody Assay: IC50; Virus/Ab Incubation 18 hour [21]: > 50 µg/mL; Neutralizing Antibody Assay: IC50; Virus/Ab Incubation 1 hour [22]: > 50 µg/mL; Neutralizing Antibody Assay: IC50; Virus/Ab Incubation 18 hour [22]: > 50 µg/mL
B5 | > 50 | > 50 | > 50 | > 50 | 25.8 | > 50 | > 50 | > 50 | > 50 | > 50 | > 50 | > 50 | > 50 | > 50 | 50 | 
B6 | > 50 | 0.64 | > 50 | > 50 | 7.41 | > 50 | > 50 | > 50 | 9.5 | > 50 | > 50 | > 50 | > 50 | > 50 | 28.6 | 
